Key:
TXNDC5 [1] = biological target: T1, TXNDC5 (Mus musculus, UniProt Q91W90 Q91W90:34-417); test: q-PCR of eluted aptamer; specific and strong binding to mouse TXNDC5; conditions: tags: Ni-column purified, baculovirus/insect cells, Sino Biological; single stem-loop (predicted)
Procedure: The 100 nM of aptamer-3, aptamer-7 and aptamer-11 are folded in the binding buffer via the procedures as mentioned above. 20 nM of Aptamer-3, aptamer-7 and aptamer-11 are taken individually and hybridized with positive-(mouse and human TXNDC5, 5 μl) and negative-(serum and catalytic-death TXNDC5, 5 μl) MNPs, and the hybridized aptamers-MNPs are processed according to the above MARAS procedures. Aptamer-3, aptamer-7 and aptamer-11 bound with MNPs are collected and eluted by heating to 95° C. for 5 min in 100 μl ddH₂O.
The amounts of aptamer-3, aptamer-7 and aptamer-11 are detected by q-PCR and the relative expression levels are utilized as outcomes. The process of detecting the amounts of aptamer-3, aptamer-7 and aptamer-11 by q-PCR is set forth as following. To measure the relative expression of aptamer-3, aptamer-7 and aptamer-11, the q-PCR is performed in 96-well plates with BioRad CFX Connect system. The fivefold-diluted eluted aptamer-3, aptamer-7 and aptamer-11 are individually dissolved in test tubes filled with 100 μl of RNase-free water. […]

TXNDC5 (wild type) [2] = biological target: T2, TXNDC5 (wild type) (Homo sapiens, UniProt Q8NBS9 Q8NBS9:33-432); test: inhibition; insulin reduction turbidity assay, 0.5 mM DTT, potassium phosphate, EDTA, pH 7; conditions: tags: Ni-column purified, baculovirus/insect cells, Sino Biological
Procedure: An insulin/assay buffer is prepared by adding 1.6 mM insulin (which is prepared by dissolving insulin in 0.1 N HCl) with the assay buffer consisted of 100 mM potassium phosphate and 0.2 mM EDTA (pH 7). The volume of each insulin/assay buffer is 15 μl, wherein the volume of insulin is 6 μl and the volume of assay buffer is 9 μl.
Each of the above mixtures of aptamers (Ap-3, Ap7 and Ap-11) with different concentrations and human wild type TXNDC5 is added with a corresponding insulin/assay buffer separately. That is, aptamer-3, aptamer-7 and aptamer-11 have seven experimental group samples (with different concentrations, 7.8125 μM, 15.625 μM, 31.25 μm, 62.5 μM, 125 μM, 250 μM and 500 μM) separately. An insulin/assay buffer which is not added with the above mixture of aptamers and human wild type TXNDC5 is prepared as the control group sample.

TXNDC5 (wild type) [3] = biological target: T2, TXNDC5 (wild type); test: magnetic nanoparticle (MARAS) pulldown with q-PCR, nonlinear regression; conditions: tags: Ni-column purified, baculovirus/insect cells, Sino Biological; double stem-loop (predicted)
Procedure: (§1) For further determining the binding efficiency of TXNDC5-targeting aptamers, the Kd values, as the indicator of aptamer and target molecule interaction, of aptamer-3 and aptamer-7 are measured by q-PCR, and the results were fitted with nonlinear regression. The method of measuring the Kd values of aptamer-3 and aptamer-7 is illustrated as following.
(§2) Aptamer-3 and aptamer-7 are isolated and progressively diluted in series from 100 to 3.125 nM, aptamer-3 and aptamer-7 are folded in the binding buffer as the procedures mentioned above. Equal amounts of either mouse-MNPs or humane-MNPs are mixed with aptamer-3 and aptamer-7 and followed the MARAS and q-PCR procedure as described above to specifically bind to aptamer-3 and aptamer-7. The Kd values of aptamer-3 and aptamer-7 are measured by fitting the results of each Ct value from q-PCR and the concentrations in a nonlinear regression through PRISM 8 (Graphpad). Each result is performed in duplicate to reduce the errors.

TXNDC5 [4] = biological target: T1, TXNDC5; test: as above; conditions: tags: Ni-column purified, baculovirus/insect cells, Sino Biological; double stem-loop (predicted)
Procedure: as §1, §2

T2 sequence (Q8NBS9 33-432, one chain of several): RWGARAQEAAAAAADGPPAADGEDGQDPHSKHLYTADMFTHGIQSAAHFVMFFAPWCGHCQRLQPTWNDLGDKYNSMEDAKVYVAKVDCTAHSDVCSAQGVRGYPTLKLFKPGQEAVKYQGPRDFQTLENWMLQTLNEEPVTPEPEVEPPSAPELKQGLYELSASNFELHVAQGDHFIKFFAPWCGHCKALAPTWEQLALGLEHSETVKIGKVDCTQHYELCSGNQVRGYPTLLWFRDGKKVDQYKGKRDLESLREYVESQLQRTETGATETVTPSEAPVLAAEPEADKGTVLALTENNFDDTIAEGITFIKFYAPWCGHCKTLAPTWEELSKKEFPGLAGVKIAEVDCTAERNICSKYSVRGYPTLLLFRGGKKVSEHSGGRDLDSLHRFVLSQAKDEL
T1 sequence (Q91W90 34-417, one chain of several): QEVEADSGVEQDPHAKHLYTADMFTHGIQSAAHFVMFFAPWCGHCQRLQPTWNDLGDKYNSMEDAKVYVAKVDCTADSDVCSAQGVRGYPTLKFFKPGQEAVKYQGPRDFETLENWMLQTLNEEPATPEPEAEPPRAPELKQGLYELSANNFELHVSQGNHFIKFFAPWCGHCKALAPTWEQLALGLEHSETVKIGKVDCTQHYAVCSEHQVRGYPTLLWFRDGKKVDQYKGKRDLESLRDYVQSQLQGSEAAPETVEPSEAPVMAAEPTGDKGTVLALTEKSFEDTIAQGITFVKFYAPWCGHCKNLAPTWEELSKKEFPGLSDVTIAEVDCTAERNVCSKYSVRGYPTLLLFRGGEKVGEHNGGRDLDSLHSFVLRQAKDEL

Row | Binder | binding result (TXNDC5 [1]) | IC50 (TXNDC5 (wild type) [2]; single stem-loop (predicted)) | Kd (TXNDC5 (wild type) [3]) | IC50 (TXNDC5 (wild type) [2]; double stem-loop (predicted)) | Kd (TXNDC5 [4])
1 | AGCAGCACAGAGGTCTCTTATTACTCTCCCGTACCGCGTGCTACCGTGAA (ssDNA) [Aptamer-11] | binds | 263 µM |  |  | 
2 | AGCAGCACAGAGGTCAGGAACCTTATGCCTATGTAGCGTGCTACCGTGAA (ssDNA) [Aptamer-7] |  |  | 0.0169 µM | 241 µM | 
3 | AGCAGCACAGAGGTCAATGTAATCTTTATCTATCGGCGTGCTACCGTGAA (ssDNA) [Aptamer-3] |  |  |  | 214 µM | 0.0075 µM

— US20230304019, “DNA APTAMER, PHARMACEUTICAL COMPOSITION COMPRISING SAME, METHOD FOR INHIBITING CATALYTIC ABILITY OF TXNDC5, AND METHOD FOR PREVENTING OR TREATING ORGAN FIBROSIS” (CHI-HUA FUNDATION, published 2023)
